Assays:
[1] = molecular target: N-terminal FLAG-tagged EBP50 (ERM-binding phosphoprotein 50) (human) (UniProt O14745); test: RNA immunoprecipitation
[2] = molecular target: ezrin, endogenous in HEK293T cells (human (endogenous in HEK293T), UniProt P15311 1-586); test: RNA immunoprecipitation
ezrin, endogenous in HEK293T cells, sequence (P15311 whole entry): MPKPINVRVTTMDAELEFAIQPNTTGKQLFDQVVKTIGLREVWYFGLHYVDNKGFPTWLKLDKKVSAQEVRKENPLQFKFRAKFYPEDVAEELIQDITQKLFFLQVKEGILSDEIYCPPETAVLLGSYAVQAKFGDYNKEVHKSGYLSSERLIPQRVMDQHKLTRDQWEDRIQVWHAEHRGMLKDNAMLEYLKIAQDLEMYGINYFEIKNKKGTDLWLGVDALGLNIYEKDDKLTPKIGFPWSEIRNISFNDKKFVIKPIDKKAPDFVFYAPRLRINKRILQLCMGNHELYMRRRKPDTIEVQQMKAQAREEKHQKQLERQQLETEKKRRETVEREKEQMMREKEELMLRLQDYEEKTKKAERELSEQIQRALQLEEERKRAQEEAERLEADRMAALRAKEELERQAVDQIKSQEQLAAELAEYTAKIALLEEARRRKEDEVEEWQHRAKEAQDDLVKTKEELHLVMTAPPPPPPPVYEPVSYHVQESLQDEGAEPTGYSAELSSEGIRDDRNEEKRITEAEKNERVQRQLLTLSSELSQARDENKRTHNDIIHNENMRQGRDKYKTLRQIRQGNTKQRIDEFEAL

fold enrichment of EZR mRNA over control IgG (RIP-qRT-PCR) [1] | fold reduction of the EBP50-EZR mRNA RIP signal against control peptide [2] | Molecule
100 fold |  | ezrin, endogenous in HEK293T cells (from UniProt P15311 1-586) (natural protein)
 | ~10 fold | RRRRRRRRRKERAHQKRSSKRAPQMDWSKKNELFSNL [Arg9-EBD peptide (28-amino-acid C terminus of the EBP50 EBD with an upstream 9-arginine sequence)]

Reference: publication PMC8851480 (Proceedings of the National Academy of Sciences of the …, 2022)
